First the molecules themselves.
T1: FcγRIIA^131H (human, UniProt P12318 34-217, biotin-labeled)
T1 construct: extracellular domain; Bought protein; also called RIIAH
T1 sequence (looked up): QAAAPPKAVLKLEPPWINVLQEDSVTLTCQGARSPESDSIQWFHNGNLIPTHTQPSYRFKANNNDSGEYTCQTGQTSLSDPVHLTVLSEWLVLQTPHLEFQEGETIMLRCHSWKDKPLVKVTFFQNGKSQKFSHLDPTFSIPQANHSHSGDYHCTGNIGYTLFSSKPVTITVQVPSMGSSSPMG

T2: FcγRIIA^131R (human, UniProt P12318 34-217, biotin-labeled)
T2 construct: extracellular domain; Bought protein; also called RIIAR
T2 sequence (looked up): T1 sequence (looked up) with H134R

T3: FcγRIIB (human, UniProt P31994 43-217, biotin-labeled)
T3 construct: extracellular domain; Bought protein; also called CD32b
T3 sequence (looked up): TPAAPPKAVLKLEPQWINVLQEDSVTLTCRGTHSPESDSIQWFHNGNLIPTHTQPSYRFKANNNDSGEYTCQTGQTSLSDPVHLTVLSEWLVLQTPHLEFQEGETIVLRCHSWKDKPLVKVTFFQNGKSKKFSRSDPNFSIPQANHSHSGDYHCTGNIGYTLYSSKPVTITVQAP

B1: anti-human OX40 IgG2 antibody Mut_2 (H268D/S298L/L328W) (antibody, name in EU numbering)
heavy: QVQLQESGPGLVKPSGTLSLTCAVSGGSISSSIWWSWVRQPPGKGLEWIGEIHHSGNTNCNPSLKSRVTISIDKSKNQFSLKLTSVTAADTAVYYCARAGTGTTLDYWGQGTLVTVSSASTKGPSVFPLAPCSRSTSESTAALGCLVKDYFPEPVTVSWNSGALTSGVHTFPAVLQSSGLYSLSSVVTVPSSNFGTQTYTCNVDHKPSNTKVDKTVERKCCVECPPCPAPPVAGPSVFLFPPKPKDTLMISRTPEVTCVVVDVSDEDPEVQFNWYVDGVEVHNAKTKPREEQFNLTFRVVSVLTVVHQDWLNGKEYKCKVSNKGWPAPIEKTISKTKGQPREPQVYTLPPSREEMTKNQVSLTCLVKGFYPSDIAVEWESNGQPENNYKTTPPMLDSDGSFFLYSKLTVDKSRWQQGNVFSCSVMHEALHNHYTQKSLSLSPGK
light: EIVLTQSPGTLSLSPGERATLSCRASQSVSGDYLAWYQQKLGQAPRLLIYGASIRATGIPDRFSGSGSGTDFTLTISKLEPEDFAVYYCQQYGSSPLTFGGGTKVEIKRTVAAPSVFIFPPSDEQLKSGTASVVCLLNNFYPREAKVQWKVDNALQSGNSQESVTEQDSKDSTYSLSSTLTLSKADYEKHKVYACEVTHQGLSSPVTKSFNRGEC
notes: Substitutions in Eu numbering; entries include an unstated signal peptide
B2: anti-human OX40 IgG2 antibody Mut_7 (S239V/V266L/S298L/L328W) (antibody, name in EU numbering)
heavy: B1 heavy with S236V, V263L, D265H
light: B1 light
notes: as for B1
B3: anti-human OX40 IgG2 antibody Mut_9 (V266L/S267D/H268D/E269D/P271Q) (antibody, name in EU numbering)
heavy: B1 heavy with V263L, S264D, E266D, P268Q, L295S, W325L
light: B1 light
notes: as for B1
B4: anti-human OX40 IgG2 antibody Mut_5 (A235W/V266L/S298L/L328W) (antibody)
heavy: B1 heavy with A233W, V263L, D265H
light: B1 light
notes: as for B1
B5: anti-human OX40 IgG2 antibody Mut_4 (V234M/S267E/S298L/L328W) (antibody)
heavy: B1 heavy with V232M, S264E, D265H
light: B1 light
notes: as for B1
B6: anti-human OX40 IgG2 antibody Mut_6 (V234Q/A235G/P238L/S239V/H268D/G327A/L328E/A330S/I332T) (antibody)
heavy: B1 heavy with V232Q, A233G, P235L, S236V, L295S, G324A, W325E, A327S, I329T
light: B1 light
notes: entries include an unstated signal peptide
B7: anti-human OX40 IgG2 antibody Mut_3 (S267V/S298L/L328W) (antibody, name in EU numbering)
heavy: B1 heavy with S264V, D265H
light: B1 light
notes: as for B1

These results are taken from patent US20230220042A1 (SHANGHAI JIAO TONG UNIVERSITY SCHOOL OF MEDICINE, published 2023).

Where a chain is given by its changes, count along the chain named. In names and notes the source's numbering stands.

T5 sequence (P08637 17-208): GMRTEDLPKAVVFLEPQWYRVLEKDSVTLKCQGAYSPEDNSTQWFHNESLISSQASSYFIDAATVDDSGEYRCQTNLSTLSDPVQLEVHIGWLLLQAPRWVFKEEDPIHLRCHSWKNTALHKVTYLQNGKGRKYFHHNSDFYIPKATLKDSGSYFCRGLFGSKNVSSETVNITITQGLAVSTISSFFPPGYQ
T6 sequence (P08637 17-208 F176V): as the sequence (P08637 17-208) above, with F160V counted along it

The first assay deals with T4, FcγRI (human, UniProt P12314 16-292, biotin-labeled).
T4 construct: extracellular domain; Bought protein; also called CD64
T4 sequence (P12314 16-292): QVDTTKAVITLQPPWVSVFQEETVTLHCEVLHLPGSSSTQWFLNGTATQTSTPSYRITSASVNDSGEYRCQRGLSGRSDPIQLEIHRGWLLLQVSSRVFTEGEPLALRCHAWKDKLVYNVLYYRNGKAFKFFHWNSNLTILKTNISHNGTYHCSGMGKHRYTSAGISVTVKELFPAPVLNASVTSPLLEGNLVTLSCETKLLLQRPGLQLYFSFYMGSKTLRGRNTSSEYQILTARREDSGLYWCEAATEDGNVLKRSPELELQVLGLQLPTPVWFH
The assay can be described thus: ELISA, coated antibody, biotin-FcγR.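 On Absorbance value: antibody coated at 2 µg/mL at 100 µL per well.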 As for the experimental part: (§1) One hundred μl (2 μg/mL) of antibody or mutant thereof were added to the enzyme-linked plate to be coated overnight, then the supernatant was discarded. The plate was blocked with PBS containing 1% BSA for 2 hours, and washed with PBST (PBS containing 0.05% Tween 20). Biotin-labeled FcγR extracellular domain protein (Beijing Sino Biological Co., Ltd) of appropriate concentration was added and incubated at room temperature for 1 hour, then the supernatant was discarded and the plate was washed with PBST. The Biotin-labeled protein was detected by incubating with Streptavidin-HRP (BD BioSciences) at room temperature for 1 hour. The supernatant was removed, and the color-developing solution was added for color development for 20-40 minutes to determine the absorbance of 650 nm (A650).
(§2) Anti-human OX40 antibodies containing these new Fc mutation combinations are expressed and the binding property of the mutant antibody to FcγR are analyzed by Enzyme-linked immunosorbent assay (ELISA).
Background: In an ELISA, binding on a coated surface is turned into a signal by an enzyme label.
With B1, the Absorbance value amounted to 0.14 A650 and the “Relative binding affinity RI/G1” value is 0.05 ratio.

In the case of B2, the Absorbance value was determined as 0.13 A650 and the “Relative binding affinity RI/G1” value amounted to 0.05 ratio.

For the molecule B3, the Absorbance value stood at 0.12 A650 and the “Relative binding affinity RI/G1” value is 0.05 ratio.

Turning to B4, the Absorbance value was 0.38 A650 and the “Relative binding affinity RI/G1” value was 0.14 ratio.

For B5, the Absorbance value was found to be 0.25 A650 and the “Relative binding affinity RI/G1” value was determined as 0.1 ratio.

For B6, the Absorbance value amounted to 0.09 A650 and the “Relative binding affinity RI/G1” value was found to be 0.03 ratio.

Consider B7, for which the Absorbance value came out at 0.18 A650 and the “Relative binding affinity RI/G1” value is 0.07 ratio.

For the next assay, the target named is T1, FcγRIIA^131H. Briefly: ELISA, coated antibody, biotin-FcγR.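 On Absorbance value: antibody coated at 2 µg/mL at 100 µL per well.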 As for the experimental part:
as §1, §2
Regarding B1, the Absorbance value is 0.32 A650 and the “Relative binding affinity RIIAH/G1” value came out at 0.56 ratio.

Regarding B2, the Absorbance value turned out to be 0.38 A650 and the “Relative binding affinity RIIAH/G1” value was 0.67 ratio.

In the case of B3, the Absorbance value was 0.2 A650 and the “Relative binding affinity RIIAH/G1” value was found to be 0.34 ratio.

B4: the Absorbance value is 0.46 A650 and the “Relative binding affinity RIIAH/G1” value is 0.81 ratio.

As to B5, the Absorbance value is 0.48 A650 and the “Relative binding affinity RIIAH/G1” value turned out to be 0.84 ratio.

On to B6, for which the Absorbance value is 0.05 A650 and the “Relative binding affinity RIIAH/G1” value is 0.08 ratio.

As to B7, the Absorbance value is 0.34 A650 and the “Relative binding affinity RIIAH/G1” value worked out at 0.6 ratio.

In a further assay the target is T2, FcγRIIA^131R. The assay can be described thus: ELISA, coated antibody, biotin-FcγR.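 On Absorbance value: antibody coated at 2 µg/mL at 100 µL per well.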 The method, then: as §1, §2
In the case of B1, the Absorbance value came out at 0.29 A650 and the “Relative binding affinity RIIAR/G1” value came to 1.09 ratio.

For B2, the Absorbance value came to 0.23 A650 and the “Relative binding affinity RIIAR/G1” value was 0.87 ratio.

B3: the Absorbance value came out at 0.74 A650 and the “Relative binding affinity RIIAR/G1” value worked out at 2.83 ratio.

As to B4, the Absorbance value was 0.46 A650 and the “Relative binding affinity RIIAR/G1” value came out at 1.77 ratio.

As for B5, the Absorbance value worked out at 1.44 A650 and the “Relative binding affinity RIIAR/G1” value amounted to 5.51 ratio.

Turning to B6, the Absorbance value was 0.05 A650 and the “Relative binding affinity RIIAR/G1” value turned out to be 0.19 ratio.

B7: the Absorbance value came to 0.23 A650 and the “Relative binding affinity RIIAR/G1” value worked out at 0.87 ratio.

The target of another assay is T3, FcγRIIB. Briefly: ELISA, coated antibody, biotin-FcγR.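 On Absorbance value: antibody coated at 2 µg/mL at 100 µL per well.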 The method, then:
as §1, §2
In the case of B1, the Absorbance value was 1 A650, the “Increased factor of RIIB binding compared with wild-type IgG2” value (shortened to “Increased factor of RIIB binding”) is 13.4 fold and the “Relative binding affinity RIIB/G1” value stood at 1.33 ratio.

Turning to B2, the Absorbance value was found to be 0.58 A650, the “Increased factor of RIIB binding” value was 7.7 fold and the “Relative binding affinity RIIB/G1” value is 0.76 ratio.

On to B3, for which the Absorbance value was 1.2 A650, the “Increased factor of RIIB binding” value was found to be 16 fold and the “Relative binding affinity RIIB/G1” value is 1.59 ratio.

With B4, the Absorbance value was determined as 1.18 A650, the “Increased factor of RIIB binding” value is 15.7 fold and the “Relative binding affinity RIIB/G1” value stood at 1.56 ratio.

Consider B5, for which the Absorbance value came out at 1.92 A650, the “Increased factor of RIIB binding” value came to 25.6 fold and the “Relative binding affinity RIIB/G1” value amounted to 2.54 ratio.

Regarding B6, the Absorbance value came out at 0.5 A650, the “Increased factor of RIIB binding” value was 6.63 fold and the “Relative binding affinity RIIB/G1” value turned out to be 0.66 ratio.

As for B7, the Absorbance value is 0.94 A650, the “Increased factor of RIIB binding” value is 12.6 fold and the “Relative binding affinity RIIB/G1” value was 1.25 ratio.

A further assay concerns the target T5, FcγRIIIA^158F (human, UniProt P08637 17-208, biotin-labeled).
T5 construct: extracellular domain; Bought protein; also called RIIIAF
The assay can be described thus: ELISA, coated antibody, biotin-FcγR.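 On Absorbance value: antibody coated at 2 µg/mL at 100 µL per well.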 As for the experimental part: as §1, §2
Regarding B1, the Absorbance value amounted to 0.07 A650 and the “Relative binding affinity RIIIAF/G1” value is 0.38 ratio.

As to B2, the Absorbance value came out at 0.07 A650 and the “Relative binding affinity RIIIAF/G1” value was 0.38 ratio.

For B3, the Absorbance value was determined as 0.07 A650 and the “Relative binding affinity RIIIAF/G1” value came to 0.38 ratio.

Take B4: the Absorbance value was found to be 0.06 A650 and the “Relative binding affinity RIIIAF/G1” value was 0.31 ratio.

B5: the Absorbance value was determined as 0.06 A650 and the “Relative binding affinity RIIIAF/G1” value amounted to 0.32 ratio.

Consider B6, for which the Absorbance value stood at 0.06 A650 and the “Relative binding affinity RIIIAF/G1” value was 0.3 ratio.

Consider B7, for which the Absorbance value stood at 0.08 A650 and the “Relative binding affinity RIIIAF/G1” value is 0.4 ratio.

Another assay addresses T6, FcγRIIIA^158V (human, UniProt P08637 17-208, biotin-labeled).
T6 construct: extracellular domain; Bought protein; also called RIIIAV; CD16a 158V
The assay can be described thus: ELISA, coated antibody, biotin-FcγR.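 On Absorbance value: antibody coated at 2 µg/mL at 100 µL per well.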 As for the experimental part:
as §1, §2
In the case of B1, the Absorbance value was found to be 0.06 A650 and the “Relative binding affinity RIIIAV/G1” value is 0.06 ratio.

For the molecule B2, the Absorbance value came out at 0.06 A650 and the “Relative binding affinity RIIIAV/G1” value amounted to 0.07 ratio.

For the molecule B3, the Absorbance value worked out at 0.07 A650 and the “Relative binding affinity RIIIAV/G1” value was found to be 0.08 ratio.

With B4, the Absorbance value was 0.06 A650 and the “Relative binding affinity RIIIAV/G1” value was 0.07 ratio.

Turning to B5, the Absorbance value came out at 0.05 A650 and the “Relative binding affinity RIIIAV/G1” value came to 0.06 ratio.

For the molecule B6, the Absorbance value turned out to be 0.06 A650 and the “Relative binding affinity RIIIAV/G1” value came out at 0.06 ratio.

As to B7, the Absorbance value was found to be 0.07 A650 and the “Relative binding affinity RIIIAV/G1” value was 0.08 ratio.

The target in the next assay is T3, FcγRIIB. The assay can be described thus: ELISA; relative affinity to FcγRIIB over that to FcγRIIA131R. As for the experimental part: as §1, §2
As to B1, the RIIB/RIIAR was determined as 1.21 ratio.

As to B2, the RIIB/RIIAR came to 0.88 ratio.

Consider B3, for which the RIIB/RIIAR was found to be 0.56 ratio.

Turning to B4, the RIIB/RIIAR amounted to 0.88 ratio.

On to B5, for which the RIIB/RIIAR turned out to be 0.46 ratio.

For the molecule B6, the RIIB/RIIAR turned out to be 3.52 ratio.

With B7, the RIIB/RIIAR came out at 1.44 ratio.
